In article PMC5974088:

Key:
Assay in all cases: ITC; 200-400 μM 53BP1 Tudor domain (wt or mutant) injected into 200 μl of 22-44 μM TIRR or Nudt16 (wt or mutant); 25 °C; 20 mM Tris-HCl pH 7.5, 150 mM NaCl; single-site binding model
[1] = molecular target: TIRR H106Y (not stated (human or mouse cDNA cloned)) (UniProt Q8VHN8)
[2] = molecular target: TIRR H106Q (not stated (human or mouse cDNA cloned)) (UniProt Q8VHN8)
[3] = molecular target: TIRR H106R (not stated (human or mouse cDNA cloned)) (UniProt Q8VHN8)
[4] = molecular target: Nudt16 ^W105 (H. sapiens) (UniProt Q96DE0)
[5] = molecular target: TIRR H106Δ (not stated (human or mouse cDNA cloned)) (UniProt Q8VHN8)
[6] = molecular target: TIRR I12A (not stated (human or mouse cDNA cloned)) (UniProt Q8VHN8)
[7] = molecular target: TIRR H106K (not stated (human or mouse cDNA cloned)) (UniProt Q8VHN8)
[8] = molecular target: TIRR K10E (not stated (human or mouse cDNA cloned)) (UniProt Q8VHN8)
[9] = molecular target: TIRR H106A (not stated (human or mouse cDNA cloned)) (UniProt Q8VHN8)
[10] = molecular target: TIRR L20A (not stated (human or mouse cDNA cloned)) (UniProt Q8VHN8)
[11] = molecular target: TIRR H106W (not stated (human or mouse cDNA cloned)) (UniProt Q8VHN8)
[12] = molecular target: Nudt16 ^H105 with R5, L7, V100 substituted by TIRR residues K10, I12, L101 (H. sapiens) (UniProt Q96DE0)
[13] = molecular target: Nudt16 ^H105 (H. sapiens) (UniProt Q96DE0)
[14] = molecular target: TIRR I12G (not stated (human or mouse cDNA cloned)) (UniProt Q8VHN8)
[15] = molecular target: TIRR P105A (not stated (human or mouse cDNA cloned)) (UniProt Q8VHN8)

53BP1 tandem Tudor domain (1484-1603), sequence (Q12888 other isoform, or with tags, fused parts or gaps): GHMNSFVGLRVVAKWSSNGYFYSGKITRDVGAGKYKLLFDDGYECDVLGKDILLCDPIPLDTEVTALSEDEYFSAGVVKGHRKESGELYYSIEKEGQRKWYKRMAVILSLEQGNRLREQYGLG

For “53BP1 tandem Tudor domain (1484-1603) (from UniProt Q12888 1484-1603) (domain or fragment)”, the Kd [1] was 1.4 µM, the Kd [2] was 5.1 µM and the Kd [3] was 1.9 µM. The Kd [4] was 3.6 µM, the Kd [5] was 17.8 µM and the Kd [6] was 4.9 µM. It also gave a Kd [7] of 6.8 µM, a Kd [8] of 20.4 µM and a Kd [9] of 3.9 µM. It also gave a Kd [10] of 25.5 µM, a Kd [11] of 0.5 µM and a Kd [12] of 1 µM. The Kd [13] was 7.1 µM, the Kd [14] was 38.3 µM and the Kd [15] was 4.3 µM.
